Results taken from the supplement of paper PMC10567573.
± gives the standard deviation.

Assay: protein stability index of a GFP-peptide fusion (GPS, HEK-293T) (PSI 1-6); higher = more stable
Conditions: c terminus: a fixed tail appended
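Also: 24-mer peptide tiles fused after GFP, lentivirally expressed, FACS-sorted into six equal bins by GFP/DsRed ratio, decoded by Illumina sequencing, PSI is the read-weighted mean bin number.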

| Sequence | protein stability index (treatment: DMSO) | protein stability index (treatment: MLN4924 1 uM, 8 h) |
| --- | --- | --- |
| FMLRYLYSQKESGHSNWLGDPEEP [ATL3] | 2.75 ± 0.33 | 2.06 ± 0.48 |
| RYLTFFHNYNILIATLRVALPSVM [MCOLN1] | 3.31 ± 0.65 | 3.05 ± 0.54 |
| FNIVYIYTSELYPTVIRNVGLGTC [SLC22A15] | 3.07 ± 0.23 | 3.07 ± 0.62 |
| PKRLRCWEEEEDHEKERPEHKSLE [FANCE] | 5.32 ± 0.17 | 5.37 ± 0.33 |
| YIAAFLHVLLPVALEFQPQLVLVA [HDAC6] | 3.25 ± 0.84 | 3.14 ± 0.41 |
| MESRKDITNQEELWKMKPRRNLEE [STEAP1] | 4.91 ± 0.37 | 4.92 ± 0.34 |
| EEPRPSRPRYKADVPDLQSVCSCT [KCNK9] | 4.62 ± 0.13 | 4.55 ± 0.19 |
| VVAEAQTRVSQLGLQVEGLRRRLE [LRRC45] | 3.71 ± 0.4 | 3.82 ± 0.51 |
| PPSSGNGPAPPPLPPALVPAGGLA [WAS] | 4.66 ± 0.47 | 4.67 ± 0.29 |
| KCKKKITGEIMHALKMTWHVHCFT [PDLIM7] | 2.81 ± 0.81 | 2.7 ± 0.12 |
| GVKFVGLFIILQVGLNTIADLWYL [POMT2] | 3.52 ± 0.1 | 2.9 ± 1.2 |
| LHAVADIHCENCKTTLGWKYEQAF [YPEL3] | 2.38 ± 0.49 | 2.14 ± 0.46 |
| MERRRLRGSIQSRYISMSVWTSPR [PRAME] | 2.64 ± 0.28 | 2.73 ± 0.38 |
| MALPGARARGWAAAARAAQRRRRV [RSAD1] | 4.64 ± 0.15 | 4.61 ± 0.17 |
| ALDEAAAALTRMRAESTANAGQSD [ANKRD17] | 5.49 ± 0.17 | 5.36 ± 0.25 |
| ESDSCVSFEAPLTPLIQQRARDSP [PSD2] | 5.02 ± 0.16 | 4.92 ± 0.24 |

| Sequence | protein stability index (treatment: DMSO) | protein stability index (treatment: MLN4924 1 uM, 8 h) |
| --- | --- | --- |
| YKVRHVHWKTWLAIKCSPSLHVDD [RIPK4] | 2.16 ± 0.34 | 1.98 ± 0.44 |
| NCVSSVYLYYDPDYSFLSLGVYSA [ATE1] | 3.23 ± 0.41 | 3.27 ± 0.11 |
| NWGNGKRPNLETYYERVLKRKTFN [GDAP1] | 2.57 ± 0.12 | 2.79 ± 0.52 |
| DSRLMCSSVQKALFEEEDHVKKLQ [CCDC3] | 4.71 ± 0.16 | 4.74 ± 0.25 |
| CLVKGIFYHCSNDDEGDSYSDNPC [SPRY1] | 2.61 ± 0.23 | 2.89 ± 0.15 |
| QPVPNTTEPDYKSKDWVFLNYTYK [STK38L] | 3.33 ± 0.63 | 3.14 ± 0.31 |
| VKYIVERTMLDFPQHVSSDKEVRA [NLN] | 2.82 ± 0.36 | 2.69 ± 0.25 |
| KQYQQRAFGWFRCSSCQRSWASAQ [RTP4] | 2.39 ± 0.34 | 2.25 ± 0.54 |
| GASSCDGCKGFFRRSVRKNHMYSC [HNF4A] | 2.36 ± 0.22 | 2.62 ± 0.26 |
| SLYENDCIFDKFECVWNGSDSVIM [PPP2R2B] | 2.06 ± 0.71 | 2.07 ± 0.37 |
| PETLPESSLFSVEANSSNSQKNEK [C8orf76] | 5.54 ± 0.14 | 5.41 ± 0.4 |
| PDLESGSESGADTISVNQTRVNLS [DLC1] | 5.12 ± 0.26 | 5.16 ± 0.2 |
| ARRLTRFTGVITQGRNSLWLSDWV [CPXM2] | 2.43 ± 0.24 | 2.38 ± 0.26 |
| LEDIYVMPEYRGQGIGSKIIKKVA [SAT2] | 3.45 ± 0.37 | 3.79 ± 0.27 |
| NHLDPFGHIILNSMHKYQPRLHIV [TBX5] | 2.31 ± 0.23 | 2.08 ± 0.52 |
| AFTMAENLANCERLIEVEDMMVMG [SMTNL2] | 2.58 ± 0.35 | 3.24 ± 0.34 |
